The target in this assay is Caspase-3-L-tev-S (Homo sapiens (Human)) (UniProt P42574). In words: cell-based or functional assay.

With membrane-bound TEVP (CAAX) (enzyme), the cell death of polytransfected HEK293 cells, Annexin V staining and flow cytometry stood at 40 % cell death.
